Source: paper PMC8708005, “Poly(C)-binding Protein 2 Regulates the p53 Expression via Interactions with the 5′-Terminal Region of p53 mRNA”

Legend:
[1] = biological target: T1, PCBP2 (poly(C)-binding protein 2, hnRNP E2) (UniProt Q15366 1-365); assay: EMSA; 4 °C 25 min, 2.5 mM Mg2+, yeast tRNA and BSA; EMSA: 25 mM NaH2PO4 pH 8.0, 50 mM NaCl, 25 mM KCl, 2.5 mM MgCl2, 10 mM imidazole, 0.5 mM DTT, 0.5 mM PMSF, 7% glycerol, 0.5 U/uL RNasin, 75 ng/uL BSA, 100 ng/uL yeast tRNA; 4 °C 25 min (also 25 °C 15 min, 37 °C 10 min); conditions: protein: recombinant; label: 5'-32P (EMSA); hairpins G56-C169 and U180-A218
T1 sequence (Q15366 whole entry): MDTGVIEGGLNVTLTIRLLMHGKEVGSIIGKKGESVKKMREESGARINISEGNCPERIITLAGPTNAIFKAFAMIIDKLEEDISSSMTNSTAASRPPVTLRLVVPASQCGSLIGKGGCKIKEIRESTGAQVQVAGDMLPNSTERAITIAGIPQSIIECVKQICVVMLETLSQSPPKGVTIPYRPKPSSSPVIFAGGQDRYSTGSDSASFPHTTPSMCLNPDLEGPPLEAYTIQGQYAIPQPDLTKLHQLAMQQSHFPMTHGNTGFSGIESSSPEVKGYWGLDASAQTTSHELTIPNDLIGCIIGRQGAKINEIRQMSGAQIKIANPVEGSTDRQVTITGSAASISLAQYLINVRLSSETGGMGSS

[2] = biological target: T1, PCBP2 (poly(C)-binding protein 2, hnRNP …); assay: EMSA; 1000 and 2500 nM PCBP2, 4 °C; no change vs P1-Δ40p53; EMSA: 25 mM NaH2PO4 pH 8.0, 50 mM NaCl, 25 mM KCl, 2.5 mM MgCl2, 10 mM imidazole, 0.5 mM DTT, 0.5 mM PMSF, 7% glycerol, 0.5 U/uL RNasin, 75 ng/uL BSA, 100 ng/uL yeast tRNA; 4 °C 25 min (also 25 °C 15 min, 37 °C 10 min); conditions: protein: recombinant, label: 5'-32P
[3] = biological target: T1, PCBP2 (poly(C)-binding protein 2, hnRNP …); assay: EMSA; no complex at 4-4000 nM; smeared shift at 5 and 10 uM; EMSA: 25 mM NaH2PO4 pH 8.0, 50 mM NaCl, 25 mM KCl, 2.5 mM MgCl2, 10 mM imidazole, 0.5 mM DTT, 0.5 mM PMSF, 7% glycerol, 0.5 U/uL RNasin, 75 ng/uL BSA, 100 ng/uL yeast tRNA; 4 °C 25 min (also 25 °C 15 min, 37 °C 10 min); conditions: protein: recombinant; label: 5'-32P; hairpin
[4] = biological target: T1, PCBP2 (poly(C)-binding protein 2, hnRNP …); assay: EMSA; 4 °C 25 min, 2.5 mM Mg2+; additional intermediate complexes; text also reports decreased binding ability at fixed protein (Fig 3c); EMSA: 25 mM NaH2PO4 pH 8.0, 50 mM NaCl, 25 mM KCl, 2.5 mM MgCl2, 10 mM imidazole, 0.5 mM DTT, 0.5 mM PMSF, 7% glycerol, 0.5 U/uL RNasin, 75 ng/uL BSA, 100 ng/uL yeast tRNA; 4 °C 25 min (also 25 °C 15 min, 37 °C 10 min); conditions: protein: recombinant; label: 5'-32P; shortened hairpin; C74-G144 pair replaces U57-G168

B1: P1-Δ40p53 RNA (structured_RNA)
RNA: GGCUAGAGCCACCGUCCAGGGAGCAGGUAGCUGCUGGGCUCCGGGGACACUUUGCGUUCGGGCUGGGAGCGUGCUUUCCACGACGGUGACACGCUUCCCUGGAUUGGCAGCCAGACUGCCUUCCGGGUCACUGCCAUGGAGGAGCCGCAGUCAGAUCCUAGCGUCGAGCCCCCUCUGAGUCAGGAAACAUUUUCAGACCUAUGGAAACUACUUCCUGAAAACAACGUUCUGUCCCCCUUGCCGUCCCAAGCAAUG
Kd [1]: 95 ± 6 nM

B2: P1-Δ40p53(L) RNA (structured_RNA)
RNA: GGCUAGAGCCACCGUCCAGGGAGCAGGUAGCUGCUGGGCUCCGGGGACACUUUGCGUUCGGGCUGGGAGCGUGCUUAAGCCGACGGUGACACGCUUCCCUGGAUUGGCAGCCAGACUGCCUUCCGGGUCACUGCCAUGGAGGAGCCGCAGUCAGAUCCUAGCGUCGAGCCCCCUCUGAGUCAGGAAACAUUUUCAGACCUAUGGAAACUACUUCCUGAAAACAACGUUCUGUCCCCCUUGCCGUCCCAAGCAAUG
binding result ([2]; AUG1 in internal loop): binds

B3: P1-Δ40p53(S) RNA (structured_RNA)
RNA: GGCUAGAGCCACCGUCCAGGGAGCAGGUAGCUGCUGGGCUCCGGGGACACUUUGCGUUCGGGCUGGGAGCGUGCUUUCCAUGGCGGUGACACGCUUCCCUGGAUUGGCAGCCAGACUGCCUUCCGGGUCACUGCCAUGGAGGAGCCGCAGUCAGAUCCUAGCGUCGAGCCCCCUCUGAGUCAGGAAACAUUUUCAGACCUAUGGAAACUACUUCCUGAAAACAACGUUCUGUCCCCCUUGCCGUCCCAAGCAAUG
binding result ([2]; AUG1 in double-stranded region): binds

B4: isolated hairpin G56-C169 RNA (structured_RNA)
RNA: GUUCGGGCUGGGAGCGUGCUUUCCACGACGGUGACACGCUUCCCUGGAUUGGCAGCCAGACUGCCUUCCGGGUCACUGCCAUGGAGGAGCCGCAGUCAGAUCCUAGCGUCGAGC
Kd [3]: > 4 µM

B5: P1-Δ40p53(Δ57) RNA (structured_RNA)
RNA: GGCUAGAGCCACCGUCCAGGGAGCAGGUAGCUGCUGGGCUCCGGGGACACUUUGCGCUUUCCACGACGGUGACACGCUUCCCGGUCACUGCCAUGGAGGAGCCCCCUCUGAGUCAGGAAACAUUUUCAGACCUAUGGAAACUACUUCCUGAAAACAACGUUCUGUCCCCCUUGCCGUCCCAAGCAAUG
Kd [4]: 53 ± 6 nM
